Test results published in patent publication EP4592317A1 (ABlink Biotech Co., Ltd., dated 2025).
Values joined by “and” are separate entries in the source; they are usually repeats but may differ in a detail not shown here. Equal entries are not always repeated.

T1: Mouse 4-1BB extracellular region recombinant protein (his-tag) (mouse, UniProt P20334 24-187)
T1 construct: extracellular domain; also called Mouse4-1BB, his-tag; not shown: his-tag
T1 sequence (looked up): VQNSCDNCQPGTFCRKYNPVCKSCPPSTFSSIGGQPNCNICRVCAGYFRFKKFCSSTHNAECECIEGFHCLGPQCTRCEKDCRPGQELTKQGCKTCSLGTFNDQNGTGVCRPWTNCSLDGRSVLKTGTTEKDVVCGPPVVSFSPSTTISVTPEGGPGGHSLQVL


Experiments:
[1] = molecular target: T1, Mouse 4-1BB extracellular region …; test: ELISA, coated mouse 4-1BB-his 200 ng/well; antibody 0.37 µg/ml
[2] = molecular target: T2, Human 4-1BB extracellular domain recombinant protein (his-tag) (human, UniProt Q07011 24-186); test: SPR (Biacore 8K), VHH-hFc captured on Protein A chip, human 4-1BB-his as analyte, 25°C, 1:1 fit
T2 construct: extracellular domain; also called Human4-1BB, his-tag; human 4-1BB extracellular region recombinant protein; not shown: his-tag

[3] = molecular target: T1, Mouse 4-1BB extracellular region …; test: ELISA, coated mouse 4-1BB-his 200 ng/well; antibody 10.0 µg/ml
[4] = molecular target: T1, Mouse 4-1BB extracellular region …; test: ELISA, coated mouse 4-1BB-his 200 ng/well; antibody 0.041 µg/ml
[5] = molecular target: T3, Monkey 4-1BB extracellular region recombinant protein (his-tag) (monkey); test: ELISA, coated monkey 4-1BB-his 200 ng/well
T3 construct: extracellular domain; also called Monkey4-1BB, his-tag

[6] = molecular target: T3, Monkey 4-1BB extracellular region …; test: ELISA, coated monkey 4-1BB-his 200 ng/well; antibody 0 µg/ml (background well)
[7] = molecular target: T3, Monkey 4-1BB extracellular region …; test: ELISA, coated monkey 4-1BB-his 200 ng/well; antibody 0.37 µg/ml
[8] = molecular target: T1, Mouse 4-1BB extracellular region …; test: ELISA, coated mouse 4-1BB-his 200 ng/well; antibody 1.11 µg/ml
[9] = molecular target: T3, Monkey 4-1BB extracellular region …; test: ELISA, coated monkey 4-1BB-his 200 ng/well; antibody 0.041 µg/ml
[10] = molecular target: T1, Mouse 4-1BB extracellular region …; test: ELISA, coated mouse 4-1BB-his 200 ng/well; antibody 0 µg/ml (background well)
[11] = molecular target: T2, Human 4-1BB extracellular domain …; test: ELISA, coated human 4-1BB-his 200 ng/well; antibody 0.014 µg/ml
[12] = molecular target: T2, Human 4-1BB extracellular domain …; test: ELISA, coated human 4-1BB-his 200 ng/well
[13] = molecular target: T2, Human 4-1BB extracellular domain …; test: ELISA, coated human 4-1BB-his 200 ng/well; antibody 0.37 µg/ml
[14] = molecular target: T2, Human 4-1BB extracellular domain …; test: ELISA, coated human 4-1BB-his 200 ng/well; antibody 0.12 µg/ml
[15] = molecular target: T3, Monkey 4-1BB extracellular region …; test: ELISA, coated monkey 4-1BB-his 200 ng/well; antibody 0.12 µg/ml
[16] = molecular target: T3, Monkey 4-1BB extracellular region …; test: ELISA, coated monkey 4-1BB-his 200 ng/well; antibody 0.014 µg/ml
[17] = molecular target: T1, Mouse 4-1BB extracellular region …; test: ELISA, coated mouse 4-1BB his-tag 200 ng/well
[18] = molecular target: T1, Mouse 4-1BB extracellular region …; test: ELISA, coated mouse 4-1BB-his 200 ng/well; antibody 0.014 µg/ml
[19] = molecular target: T2, Human 4-1BB extracellular domain …; test: ELISA, coated human 4-1BB-his 200 ng/well; antibody 0 µg/ml (background well)
[20] = molecular target: T1, Mouse 4-1BB extracellular region …; test: ELISA, coated mouse 4-1BB-his 200 ng/well; antibody 3.33 µg/ml
[21] = molecular target: T2, Human 4-1BB extracellular domain …; test: ELISA, coated human 4-1BB-his 200 ng/well; antibody 0.041 µg/ml
[22] = molecular target: T1, Mouse 4-1BB extracellular region …; test: ELISA, coated mouse 4-1BB-his 200 ng/well; antibody 0.12 µg/ml
[23] = molecular target: T3, Monkey 4-1BB extracellular region …; test: ELISA, coated monkey 4-1BB-his 200 ng/well; antibody 10.0 µg/ml
[24] = molecular target: T2, Human 4-1BB extracellular domain …; test: ELISA, coated human 4-1BB-his 200 ng/well; antibody 3.33 µg/ml
[25] = molecular target: T2, Human 4-1BB extracellular domain …; test: ELISA, coated human 4-1BB-his 200 ng/well; antibody 1.11 µg/ml
[26] = molecular target: T3, Monkey 4-1BB extracellular region …; test: ELISA, coated monkey 4-1BB-his 200 ng/well; antibody 3.33 µg/ml
[27] = molecular target: T2, Human 4-1BB extracellular domain …; test: ELISA, coated human 4-1BB-his 200 ng/well; antibody 10.0 µg/ml
[28] = molecular target: T3, Monkey 4-1BB extracellular region …; test: ELISA, coated monkey 4-1BB-his 200 ng/well; antibody 1.11 µg/ml

Kd [2] | koff [2] | kon [2] | EC50 [5] | absorbance at 450 nm [6] | absorbance at 450 nm [7] | absorbance at 450 nm [9] | absorbance at 450 nm [11] | EC50 [12] | absorbance at 450 nm [13] | absorbance at 450 nm [14] | absorbance at 450 nm [15] | absorbance at 450 nm [16] | absorbance at 450 nm [19] | absorbance at 450 nm [21] | absorbance at 450 nm [23] | absorbance at 450 nm [24] | absorbance at 450 nm [25] | absorbance at 450 nm [26] | absorbance at 450 nm [27] | Binder | also measured
3.91 nM | 0.00916 s⁻¹ | 2.34e+06 M⁻¹ s⁻¹ | 0.113 µg/mL and 1.41 nM | 0.077 | 3.97 | 0.971 | 0.612 | 0.138 µg/mL and 1.73 nM | 3.97 | 1.5 | 1.85 | 0.621 | 0.093 | 0.754 | – | – | – | – | – | 137-1 VHH-hFc recombinant antibody (Fc fusion, also called CD137-1; not shown: human IgG1 Fc tag of the eukaryotic expression vector pFclG) QVQLVESGGGLVQPGGSLRLSCVASGFVFSTVTMGWGRQVPGKEFEWVSGVSSEGITDYADSVKGRFTISRDNAKNTVYLEMNSLKSEDTAEYYCLIGGRWSFGTWGQGTQVTVSS | absorbance at 450 nm [1]: 0.269; absorbance at 450 nm [3]: 0.31; absorbance at 450 nm [4]: 0.202; absorbance at 450 nm [8]: 0.207; absorbance at 450 nm [10]: 0.24; binding result [17]: no binding (tested: 0.014-10 µg/mL); absorbance at 450 nm [18]: 0.199; absorbance at 450 nm [20]: 0.231; absorbance at 450 nm [22]: 0.184
– | – | – | 51.9 µg/mL and 649 nM | 0.041 | 0.276 | 0.354 | 0.413 | 0.001 µg/mL and 0.011 nM | 0.347 | 0.383 | 0.372 | 0.333 | 0.112 | 0.372 | 1.91 | 0.454 | 0.414 | 0.879 | 0.48 | 137-36 VHH-hFc recombinant antibody (Fc fusion, VHH fragment inserted into vector pFclG with human IgG1 Fc tag, expressed in HEK293F; not shown: human IgG1 Fc tag of the eukaryotic expression vector pFclG) QVQLVESGGGLVQTGGSLTLSCVASGRRFEAYTIGWLRQAPGDLREGVGCIFGGTTFTGYDDSVKGRFTISRDTAKNTVYLRMNNLTSEDTATYYCAAEGRPGQIKGQHGCLTPSWYNYKGQGTQVTVSS | absorbance at 450 nm [28]: 0.456
– | – | – | 10.3 µg/mL and 128 nM | 0.058 | 0.343 | 0.37 | 0.395 | 6.3e-05 µg/mL and 0.001 nM | 0.341 | 0.334 | 0.376 | 0.385 | 0.087 | 0.355 | 1.07 | 0.433 | 0.376 | 0.679 | 0.432 | 137-12 VHH-hFc recombinant antibody (Fc fusion, VHH fragment inserted into vector pFclG with human IgG1 Fc tag, expressed in HEK293F; not shown: human IgG1 Fc tag of the eukaryotic expression vector pFclG) QVQLVESGGGLVHPGGSLRLSCAASGFTLDDSAIGWFRQAPGKEREGVSCRSRSGYMTKYADSVKGRFTISRYNANNTMYLQMNSLKPEDTAVYYCATTRRGYCSGYETKGVDYWGQGIQVTVSS | absorbance at 450 nm [28]: 0.423
33.3 nM | 0.00274 s⁻¹ | 82200 M⁻¹ s⁻¹ | 0.234 µg/mL and 2.93 nM | 0.043 | 2.79 | 0.581 | 0.41 | 0.536 µg/mL and 6.7 nM | 1.58 | 0.704 | 1.17 | 0.447 | 0.096 | 0.419 | – | – | 3.52 | – | – | 137-16 VHH-hFc recombinant antibody (Fc fusion, VHH fragment inserted into vector pFclG with human IgG1 Fc tag, expressed in HEK293F; Preparation had non-specific bands, purity >70%; also called CD137-16; not shown: human IgG1 Fc tag of the eukaryotic expression vector pFclG) EVQLVESGGGLVQAGASLTLSCVISGRTFSSYAMGWYRQAPGKERAFVGTITWNNDIIYSDSVKGRFTISTDDGKNTMYLQMNNLKPEDTAVYYCAAYSVPYGDFCTLNYDLMDYWGKGTLVTVSS | –

Further lines, the binder ahead of its results:

Binder | Kd [2] | koff [2] | kon [2] | EC50 [5] | absorbance at 450 nm [6] | absorbance at 450 nm [7] | absorbance at 450 nm [9] | absorbance at 450 nm [11] | EC50 [12] | absorbance at 450 nm [13] | absorbance at 450 nm [14] | absorbance at 450 nm [15] | absorbance at 450 nm [16] | absorbance at 450 nm [19] | absorbance at 450 nm [21] | absorbance at 450 nm [23] | absorbance at 450 nm [24] | absorbance at 450 nm [25] | absorbance at 450 nm [26] | absorbance at 450 nm [27] | also measured
137-39 VHH-hFc recombinant antibody (Fc fusion, VHH fragment inserted into vector pFclG with human IgG1 Fc tag, expressed in HEK293F; Preparation had non-specific bands, purity about 30%; not shown: human IgG1 Fc tag of the eukaryotic expression vector pFclG) QVQLVESGGGLVHVGESLTLSCVISGGSSNLYGIGWYRQAPGQERKLVAVLHNEHTTKYLDSVKGRFFVSGDNAKNTLYLHMNNVKVEDTAVYYCNSASGTLAGTGYFASVGPWGQGTLVTVSS | – | – | – | 0.001 µg/mL and 0.012 nM | 0.041 | 0.251 | 0.387 | 0.521 | 6.04 µg/mL and 75.6 nM | 0.458 | 0.461 | 0.306 | 0.292 | 0.128 | 0.477 | 0.405 | 1 | 0.62 | 0.342 | 1.45 | absorbance at 450 nm [28]: 0.286
137-7 VHH-hFc recombinant antibody (Fc fusion, VHH fragment inserted into vector pFclG with human IgG1 Fc tag, expressed in HEK293F; also called CD137-7; not shown: human IgG1 Fc tag of the eukaryotic expression vector pFclG) QVQLVESGGGLVQPGGSLRLSCAASGFTLDSYAIAWFRQAPGKEREGVSCITSSGGSTNYADSVKGRFTISRDGAKNTVYLQLNSLKPEDTAIYYCAAFHRATCVILGEYDYWGQGTQVTVSS | 38 nM | 0.0298 s⁻¹ | 783000 M⁻¹ s⁻¹ | 0.17 µg/mL and 2.12 nM | 0.055 | 3.19 | 0.794 | 0.589 | 0.09 µg/mL and 1.12 nM | – | 2.37 | 1.54 | 0.581 | 0.081 | 0.963 | – | – | – | – | – | absorbance at 450 nm [1]: 0.201; absorbance at 450 nm [3]: 0.284; absorbance at 450 nm [4]: 0.18; absorbance at 450 nm [8]: 0.191; absorbance at 450 nm [10]: 0.209; binding result [17]: no binding (tested: 0.014-10 µg/mL); absorbance at 450 nm [18]: 0.187; absorbance at 450 nm [20]: 0.218; absorbance at 450 nm [22]: 0.166
